Experimental data: the RNAGym collection of RNA variant scans (doi:10.1093/molbev/msab373)

B1: Azoarcus group I ribozyme (parent)
chain: GUGCCUUGCGCCGGGAAACCACGCAAGGGAUGGUGUCAAAUUCGGCGAAACCUAAGCGCCCGCCCGGGCGUAUGGCAACGCCGAGCCAAGCUUCGGCGCCUGCGCCGAUGAAGGUGUAGAGACUAGACGGCACCCACCUAAGGCAAACGCUAUGGUGAAGGCAUAGUCCAGGGAGUGGCGAAAGUCACACAAACCGG

Variants of: B1
Assay: reverse-splicing fitness (ratio to wild type); higher = more active; in vitro selection; Mg2+ level not given
Summary of the method: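 An in vitro group I ribozyme library with randomized positions was T7-transcribed and gel-purified. In triplicate, 10 pmol RNA in EPPS pH 7.5 was reacted with 50 pmoles of a 30-nt RNA substrate for 1 h at 37 °C across several added MgCl2 levels (1–48 mM), then stopped with EDTA. Products were reverse transcribed from a substrate-complementary primer, PCR-amplified and sequenced (HiSeq 4000). Fitness is a variant's read proportion after selection over that before, normalised to wild type.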

Variant	reverse-splicing fitness
C82A A111G A120U C150U C169G	0.00566
C82A A111G A120U C150U C169U	0.0051
C82A A111G A120U C150U C169A	0.00487
C82A A111G A120U A145G C150U C169U	0.00572
C82A A111G A120U A145G C150U C169G	0.00703
C82A A111G A120U A145G C150U C169A	0.00667
C82A A111G A145C C150A C169G U176A	0.0291
C82A A111G A145C C150A C169G U176G	0.00722
C82A A111G A145C C150A C169G U176C	0.0145
C82A A111G A145G	0.419
C82A A111G A145C	0.41
C82A A111G A120U C169A	0.00261
C82A A111G A120U C169U	0.00452
C82A A111G A120U C169G	0.00374
C82A A111G A120U A145C C169U U176A	0.00302
C82A A111G A120U A145C C169U U176C	0.00282
C82A A111G A120U A145C C169U U176G	0.00153
C82A A111G A120U A145U C169A	0.00232
C82A A111G A120U A145U C169U	0.00422
C82A A111G A120U A145U C169G	0.00329
C82A A111G A145C C150U U176G	0.0154

Variant	reverse-splicing fitness
C82A A111G A145C C150U U176A	0.0434
C82A A111G A145C C150U U176C	0.0542
C82A A111G A120U A145G C150A U176G	0.00419
C82A A111G A120U A145G C150A U176A	0.00782
C82A A111G A120U A145G C150A U176C	0.00808
C82A A111G A145G C150A	0.0514
C82A A111G A120U A145G C169U U176G	0.00173
C82A A111G A120U A145G C169U U176C	0.00338
C82A A111G A120U A145G C169U U176A	0.00366
C82A A111G A120U A145G C169U	0.00421
C82A A111G A120U A145G C169A	0.00307
C82A A111G A120U A145G C169G	0.00402
C82A A111G A120U A145U C150U C169U U176C	0.00305
C82A A111G A120U A145U C150U C169U U176G	0.00222
C82A A111G A120U A145U C150U C169U U176A	0.00273
C82A A111G A120U A145C C150U C169G	0.00298
C82A A111G A120U A145C C150U C169A	0.00248
C82A A111G A120U A145C C150U C169U	0.00308
C82A A111G A120U C150G	0.00849
C82A A111G A120U C150U	0.0201
C82A A111G A120U C150A	0.00855

Variant	reverse-splicing fitness
C82A A111G A120U A145U C150A C169G U176A	0.00301
C82A A111G A120U A145U C150A C169G U176G	0.0019
C82A A111G A120U A145U C150A C169G U176C	0.00264
C82A A111G A120U C150U C169G U176G	0.00175
C82A A111G A120U C150U C169G U176A	0.00869
C82A A111G A120U C150U C169G U176C	0.00437
C82A A111G A120U C150U C169U U176C	0.00428
C82A A111G A120U C150U C169U U176G	0.00221
C82A A111G A120U C150U C169U U176A	0.00475
C82A A111G A120U C150G C169G U176C	0.0034
C82A A111G A120U C150G C169G U176G	0.00237
C82A A111G A120U C150G C169G U176A	0.00567
C82A A111G A120U C150G C169U U176A	0.00322
C82A A111G A120U C150G C169U U176G	0.00249
C82A A111G A120U C150G C169U U176C	0.00511
C82A A111G A120U C150A C169G	0.00463
C82A A111G A120U C150A C169U	0.00375
C82A A111G A120U C150A C169A	0.00447
C82A A111G A120U A145U C150A C169A U176A	0.00224
C82A A111G A120U A145U C150A C169A U176C	0.00213
C82A A111G A120U A145U C150A C169A U176G	0.00187

Variant	reverse-splicing fitness
C82A A111G A120U A145C C150A C169A	0.00211
C82A A111G A120U A145C C150A C169G	0.00279
C82A A111G A120U A145C C150A C169U	0.00264
C82A A111G A145C C150A C169U U176A	0.0133
C82A A111G A145C C150A C169U U176G	0.00626
C82A A111G A145C C150A C169U U176C	0.00831
C82A A111G A120U C150A C169A U176G	0.00194
C82A A111G A120U C150A C169A U176C	0.00319
C82A A111G A120U C150A C169A U176A	0.00499
C82A A111G A120U A145C C150A C169G U176C	0.00235
C82A A111G A120U A145C C150A C169G U176A	0.00315
C82A A111G A120U A145C C150A C169G U176G	0.00149
C82A A111G A145C C150G C169A	0.00898
C82A A111G A145C C150G C169G	0.00702
C82A A111G A145C C150G C169U	0.00926
C82A A111G A120U A145G C150U C169G U176A	0.0115
C82A A111G A120U A145G C150U C169G U176C	0.00643
C82A A111G A120U A145G C150U C169G U176G	0.00249
C82A A111G A120U C150A C169U U176C	0.00484
C82A A111G A120U C150A C169U U176A	0.00585
